Consider four molecules from article doi:10.64898/2025.12.22.695686.

In test [1] the target is Sgs1-MD (Sgs1 mucin domain repeat peptide) (Drosophila melanogaster).
The target in test [2] is Sgs3-MD (Sgs3 mucin domain repeat peptide) (Drosophila melanogaster).

B1: PGANT5A^WT (amino acids 77–626) (enzyme)
chain: NEINTEKSLDGESGGALIMGQGFASGGISMTYPSVVLKKWFLAPSVQEAKGKPGEMGKPVKIPADMKDLMKEKFKENQFNLLASDMISLNRSLTDVRHEGCRRKHYASKLPTTSIVIVFHNEAWTTLLRTVWSVINRSPRALLKEIILVDDASERDFLGKQLEEYVAKLPVKTFVLRTEKRSGLIRARLLGAEHVSGEVITFLDAHCECTEGWLEPLLARIVQNRRTVVCPIIDVISDETFEYITASDSTWGGFNWKLNFRWYRVPSREMARRNNDRTAPLRTPTMAGGLFSIDKDYFYEIGSYDEGMDIWGGENLEMSFRIWQCGGILEIIPCSHVGHVFRDKSPYTFPGGVAKIVLHNAARVAEVWLDEWRDFYYSMSTGARKASAGDVSDRKALRDRLKCKSFRWYLENVYPESLMPLDYYYLGEIRNAETETCLDTMGRKYNEKVGISYCHGLGGNQVFAYTKRQQIMSDDLCLDASSSNGPVNMVRCHNMGGNQEWVYDAEEKWIRHTNTGQCLQRATRDDANTPLLRPCSYGKGQQWLMESKFK
With B1, the KM for the acceptor peptide Sgs1-MD, Michaelis-Menten kinetics of O-glycosylation (UDP-Glo assay), fold against PGANT5B^WT in test [1] amounted to 0.7 fold lower. Further, in test [2], the KM for the acceptor peptide Sgs3-MD, Michaelis-Menten kinetics of O-glycosylation (UDP-Glo assay), fold against the corresponding Sgs1-MD parameter amounted to 10 fold lower.

B2: PGANT5A^D419K (amino acids 77–626) (enzyme)
chain: NEINTEKSLDGESGGALIMGQGFASGGISMTYPSVVLKKWFLAPSVQEAKGKPGEMGKPVKIPADMKDLMKEKFKENQFNLLASDMISLNRSLTDVRHEGCRRKHYASKLPTTSIVIVFHNEAWTTLLRTVWSVINRSPRALLKEIILVDDASERDFLGKQLEEYVAKLPVKTFVLRTEKRSGLIRARLLGAEHVSGEVITFLDAHCECTEGWLEPLLARIVQNRRTVVCPIIDVISDETFEYITASDSTWGGFNWKLNFRWYRVPSREMARRNNDRTAPLRTPTMAGGLFSIDKDYFYEIGSYDEGMDIWGGENLEMSFRIWQCGGILEIIPCSHVGHVFRKKSPYTFPGGVAKIVLHNAARVAEVWLDEWRDFYYSMSTGARKASAGDVSDRKALRDRLKCKSFRWYLENVYPESLMPLDYYYLGEIRNAETETCLDTMGRKYNEKVGISYCHGLGGNQVFAYTKRQQIMSDDLCLDASSSNGPVNMVRCHNMGGNQEWVYDAEEKWIRHTNTGQCLQRATRDDANTPLLRPCSYGKGQQWLMESKFK
With B2, in test [1], the KM for the acceptor peptide Sgs1-MD, Michaelis-Menten kinetics of O-glycosylation (UDP-Glo assay), fold against PGANT5A^WT is 0.6 fold higher. Further, in test [2], the KM for the acceptor peptide Sgs3-MD, Michaelis-Menten kinetics of O-glycosylation (UDP-Glo assay), fold against the corresponding Sgs1-MD parameter worked out at 10 fold lower.

B3: PGANT5B^K419D (amino acids 77–626) (enzyme)
chain: NEINTEKSLDGESGGALIMGQGFASGGISMTYPSVVLKKWFLAPSVQEAKGKPGEMGKPVKIPADMKDLMKEKFKENQFNLLASDMISLNRSLTDVRHEGCRRKHYASKLPTTSIVIVFHNEAWTTLLRTVWSVINRSPRALLKEIILVDDASERDFLGKQLEEYVAKLPVKTFVLRTEKRSGLIRARLLGAEHVSGEVITFLDAHCECTEGWLEPLLARIVQNRRTVVCPIIDVISDETFEYITASDSTWGGFNWKLNFRWYRVPSREMARRNNDRTAPLRTPTMAGGLFSIDKDYFYEIGSYDEGMDIWGGENLEMSFRVWMCGGVLEIAPCSRVGHVFRDSTPYTFPGGTTEIVNHNNARLVEVWLDDWKEFYYSFYPGARKASAGDVSDRKALRDRLKCKSFRWYLENVYPESLMPLDYYYLGEIRNAETETCLDTMGRKYNEKVGISYCHGLGGNQVFAYTKRQQIMSDDLCLDASSSNGPVNMVRCHNMGGNQEWVYDAEEKWIRHTNTGQCLQRATRDDANTPLLRPCSYGKGQQWLMESKFK
With B3, in test [1], the KM for the acceptor peptide Sgs1-MD, Michaelis-Menten kinetics of O-glycosylation (UDP-Glo assay), fold against PGANT5B^WT (fold decrease) was 2. For the same molecule, the KM for the acceptor peptide Sgs3-MD, Michaelis-Menten kinetics of O-glycosylation (UDP-Glo assay), fold against the corresponding Sgs1-MD parameter in test [2] worked out at 10 fold lower.

B4: PGANT5B^WT (amino acids 77–626) (enzyme)
chain: NEINTEKSLDGESGGALIMGQGFASGGISMTYPSVVLKKWFLAPSVQEAKGKPGEMGKPVKIPADMKDLMKEKFKENQFNLLASDMISLNRSLTDVRHEGCRRKHYASKLPTTSIVIVFHNEAWTTLLRTVWSVINRSPRALLKEIILVDDASERDFLGKQLEEYVAKLPVKTFVLRTEKRSGLIRARLLGAEHVSGEVITFLDAHCECTEGWLEPLLARIVQNRRTVVCPIIDVISDETFEYITASDSTWGGFNWKLNFRWYRVPSREMARRNNDRTAPLRTPTMAGGLFSIDKDYFYEIGSYDEGMDIWGGENLEMSFRVWMCGGVLEIAPCSRVGHVFRKSTPYTFPGGTTEIVNHNNARLVEVWLDDWKEFYYSFYPGARKASAGDVSDRKALRDRLKCKSFRWYLENVYPESLMPLDYYYLGEIRNAETETCLDTMGRKYNEKVGISYCHGLGGNQVFAYTKRQQIMSDDLCLDASSSNGPVNMVRCHNMGGNQEWVYDAEEKWIRHTNTGQCLQRATRDDANTPLLRPCSYGKGQQWLMESKFK
With B4, in test [2], the KM for the acceptor peptide Sgs3-MD, Michaelis-Menten kinetics of O-glycosylation (UDP-Glo assay), fold against the corresponding Sgs1-MD parameter was 10 fold lower.
